Assay: soluble on expression in E. coli; label from the status in PepcDB or PDB records

Sequence | soluble on expression in E. coli
MGSDKIHHHHHHMNFKRLIIYEAFARAYPGEKGKKFDSLIKDLERLKGMGINTVWLMPIHPTGIEGRKGTLGSPYAIRDYYEIDPLIGTKDDFKRFVKRAHELNMYVLMDMVLNHAAADNVLVREHPEWFLRDEKGNPTRKVPDWTDIVDFDYSNGELRKYMINMMKYWVEEFDVDGFRCDVAGLVPLDFWLQARKELDPVKRLIWLSETHDPYMYQAFDITYDYDGYYKFRDFIEGRGSLREYVDFLRMQDHMYPRGYIKMRFLENHDQPRIAKFIEEDSLVHWIAFLFTFKGVPLVHNGQEYGLKEDVDIFNEYTLPFPMEENRISILHRKLAHYRYGTSVFSEGEMLFVKNDQPEKVISYLWRYENRYILCMLNPLLENTKVTLDFSGIWESACIHSKNVFNDEIVRVPVKNSRATVEIGKEPLILSFVLY | not soluble
MSLNRYLAAPEIKANETLVIADRYAYFNIPSWKGAGVAVPVFSLKSEKSFGVGDFGDLKRMVDWAVSTNQKVVQILPINDTTMTHTWTDSYPYNSISIYAFHPMYADLKQMGNLKDKETAAAFNRKQKELNALSAIDYEAVNRVKWEYFHQIFKQEGEKVLASKAFRSFFEANKDWLQPYAAFSYLRDLYHTPNFREWPQYSEYNAQEIEELCRPDTADYAHIAIYFYIQFNLHLQLLEATTYAREHGVVLKGDIPIGISRNSVEAWTEPYYFNLNGQAGAPPDDFSINGQNWGFPTYNWDVMENDGYKWWMKRFQKMAEYFDAYRIDHILGFFRIWEIPMNAVHGLLGQFVPALPMSREEIESYGLSFREEFLRPYIHEYFLGQVFGPHTDYVKQTFIEPTETYEVYRMRPEFDTQRKVEAFFAGKNDEDSIWVRDGLYALISDVLFVPDRKDPNLYHPRIGVQHDFIYRALNDWEKTAFNRLYDQYYYHRHNDFWQQQAMKKLPQLTQSTRMLVCGEDLGMIPDCVAWVMNDLRILSLEIQRMPKNPAEEFGRLNEYPYRSVCTFSTHDMSTLRGWWEEDYQQTQRYYNQMLGHYGTAPAIATPELCEEIVRNHLYSNSILCILSLQDWLSMDGKWRNPNVQEERINIPANPRHYWRYRMHLTLEQLMKAESLNEKIRELVKQTGRNEGHHHHHH | soluble
MAGDPMVMLNTHVVECLQACGRCAAACDYCASSCLREGHGADMARCIALDLDCAAACRLCAAMMARESEFSTHMCTLCARICEVCGDECARHEPRHCQECATACHACASACRAMARPLEHHHHHH | soluble
MRVKTIMTQNPVTITLPATRNYALELFKKYKVRSFPVVNKEGKLVGIISVKRILVNPDEEQLAMLVKRDVPVVKENDTLKKAAKLMLEYDYRRVVVVDSKGKPVGILTVGDIIRRYFAKSEKYKGVEIEPYYQRYVSIVWEGTPLKAALKALLLSNSMALPVVDSEGNLVGIVDETDLLRDSEIVRIMKSTELAASSEEEWILESHPTLLFEKFELQLPNKPVAEIMTRDVIVATPHMTVHEVALKMAKYSIEQLPVIRGEGDLIGLIRDFDLLKVLVKSKA | soluble
MRLALAVLILLLSIAPAMALCSYEVVEERYADPFTVDISSMPSLKDLPVDDPSDGIDWVKVPLPKPCVNGMGKDTFIMVRKGSSNNLLIFFEGGGACADYETCKPMLCTDLKSCKPLLGIGSVVALESNFCFLKLYYRGGIFDVKKAENPFRDWTIVFVPYNTGDLHMGNRVVRYFDDGKEKTIYHVGYVNAIVAMRWIKENGNFDRIVVAGSSAGGYATLLHGYTAWSIFGKPVTVINDAGPGINPDSDSKFQVNEIMERWGSKQNFPPEALQYFEGKDPAYAIEYFLDKCSDCVYGFFEDQKDLVIGSVFSAYWPWQFKTRLLKVTDELRDYSDRYCRFLPYDYQHTVLTGGLLYPLQKDRFYCEKVGGYRVYEWVKELLRGNCVDLVELEHHHHHH | not soluble
MSLQLEYPLTNHMKRNMVLTKENQVIAYYRIRSETVGLTDFEKKRKTKKKVARTLKRLQENEGFEIVLLPVNADIRGKMGGMRQLVDKENHSVAVDKLMKTAQYLENEIGMVYEYIWLIGVPLVKKERSIDIKETFSTALNNLSEKVVKGLGLEVGVAEDWEEAYKDQEQEVYQNLSELLVERLTEDELYYYQAYQFLNNIQHEKKELLTSQNLDNLLANKITPFRGGLELSNEFGKSYIAHLPLGDCGVTIDGNHLLELVQKMSYPVSVKLQAGFAETKGQLALSGRSARARTRTKNIMEEAHLAGSKQKRKIVEGQHSLDDLDQKIDDDIPIIDWKAVLVISGNSKKQLRERKKNLMNRLDSLGIPLIRATFDNVYLFQATLLGNFQRFSTSNWQHTSTLETFSELNFFTSLHAGTKTGFYLGRVDATLEEKESRKQIVSGSKNIVYMNLLLANKQNIEGKKTNNPHWLVSGDTGNGKSVFSKWLFLYSSLLDVKVLYIDPKKEVRQQFMRTINDPEYQRKYPLDVAFIKTFNFVTLDVRKKENHGVLDPIVLFDETEAIATAKAMLNNINEDKWKMPHKTAINETVAEVVAERKAGKQVGFWHVIERLISHSEKDVHEMGRFLLSTIKGSILELAFSHGEVEGLSFEKKVTILEIEDLDLPTDRHDELDENQRLSVTLMFALGTFCSKFGSRNRKEETVTFFDEAWIFQSSPEGQKILKSMKRIGRSFNNFMVLITQSVNDVLDNGDGTGFGTVVCFDEVDNREGILRYLKLPVNEINLKWVSNMIQGQCLMKDMFNQVNRIVIDVIFEEWLELFETVDEGHHHHHH | soluble
MAQTDKPTCIPPELPKMLKEFAKAAIRVQPQDLIQWAADYFEALSRGETPPVRERSERVALCNRAELTPELLKILHSQVAGRLIIRAEELAQMWKVVNLPTDLFNSVMNVGRFTEEIEWLKFLALACSALGVTITKTLKIVCEVLSCDHNGGSPRIPFSTFQFLYTYIAKVDGEISASHVSRMLNYMEQEVIGPDGIITVNDFTQNPRVQLE | soluble
MEIARKVMEEFLEIWNEALAKRSLPGKFVNKDLNFGEFGLGDNYTPQHTAVRNYALVMAHMIATVQAVSG | not soluble
MGARQRMVASKGAVLSMLMDAYQKRDRVGLIAFKGDSAELLLPPTSSIELAQKYLQEMPTGGKTPISRGLVKGYEIIKSELRRDPDTCPFMVLISDGRANVSMNGEPPLHEIITIASRLKEEGIQSAVIDTESSMIKFGFAQQISTALGATYLTLENLKADSIVNAVRASAPFEIMMHPGVSSV | not soluble
MGSSHHHHHHSSGLVPRGSKTFIIGISGVTNSGKTTLAKNLQKHLPNCSVISQDDFFKPESEIETDKNGFLQYDVLEALNMEKMMSAISCWMESARHSVVSTDQESAEEIPILIIEGFLLFNYKPLDTIWNRSYFLTIPYEECKRRRSTRVYQPPDSPGYFDGHVWPMYLKYRQEMQDITWEVVYLDGTKSEEDLFLQVYEDLIQEL | soluble
IREAIARNPQEIFQYVRLSQVKRDDKVLGYRVSPGKDPVLFESIGLQDGDMAVALNGLDLTDPNVMNTLFQSMNEMTEMSLTVERDGQQHDVYIQF | not soluble
MSLARFVVLVIDSFGVGAMKDVTLVRPQDAGANTCGHILSQLPHLQLPTLETLGLINALGYAPGDMQPSDSATWGVAELQHEGGDTFMGHQEILGTRPLPPLRMPFRDVIDRVEQALVSAGWQVERRGDDLQFLWVNQAVAIGDNLEADLGQVYNITANLSVISFDDAIKIGRIVREQVQVGRVITFGGLLTDSQRILDAAESKEGRFIGINAPRSGAYDNGFQVVHMGYGVDEKVQVPQKLYEAGVPTVLVGKVADIVNNPYGVSWQNLVDSQRIMDITLNEFNTHPTAFICTNIQETDLAGHAEDVARYAERLQVVDRNLARLVEAMQPDDCLVVMADHGNDPTIGHSHHTREVVPVLVYQQGMIATQLGVRTTLSDVGATVCEFFRAPPPQNGRSFLSSLRFAGDTLEGHHHHHH | soluble
MEYDVYVRVSKEDVHLLNYLLEVEEHMFNIRKYEDGVLKIITPFPEEAIKLLEGCKEMVDLEILEVKENPGEA | soluble
GPGSMCSPIADNADMIVPSADTCCPNTVFERVLRCACIVMRVGDDPGYIWTPQRLGAGSFGTVTLAYRHEGDAVWRKTAVKRISLRKETRLSAVLEKVRCTGREVALCRRAGVSPHVVPMYKPWFDCREGVIALPMDAGDFSLEQYAVHCGFRFPPLALLSMCAQCARAVAHLHRRGVVHRDVKPDNFVVNVFDTVGGAGAGGDGDCGEARPPFVRILDFGLACGVEEVEQELKRCVGTPHYMAPETFSHLCDCDVPAACDVWSLGVTLFRLATGVFPVFDQDVTASWPPASASSARLGVPRLRSPWPRVVERCPAPW | not soluble
MSAIEVKNLVKKFHGQTVLHGIDLEVKPGEVVAIIGPSGSGKTTLLRSINLLEQPEAGTITVGDITIDTARSLSQQKSLIRQLRQHVGFVFQNFNLFPHRTVLENIIEGPVIVKGEPKEEATARARELLAKVGLAGKETSYPRRLSGGQQQRVAIARALAMRPEVILFDEPTSALDPELVGEVLNTIRQLAQEKRTMVIVTHEMSFARDVADRAIFMDQGRIVEQGAAKALFADPEQPRTRQFLEKFLLQ | soluble
MGSDKIHHHHHHMNDYIIEMLNITKEFPGIIANDNITLRLKKGEIHALLGENGAGKSTLMSVLFGLYQPEKGEIRKNGNTVKINNPNDANALGIGMVHQHFKLVEIFTVLENIILGVEPHALGFLQKKKAREKVVELSKQYGLEVNPDALIEKISVGMQQRVEILKMLYRDNEILIFDEPTAVLTPQEIDELMEIMRRFAKEGKSILFITHKLNEIMAVADRCTVLRKGQYVGTVDIKDTTKEELSRMMVGRDVSFRVQKETMTPGRVVLSVRNVSVPSKTSKKNAVSNVSFDVRAGEIVCLAGIDGNGQTEFVSALTGLERHTSGTITLCDQDISKASVRTRSQAGMSHIPEDRHKYGLVLDYTLEDNLVIQRYWQPQFQRFGFIRRKAVRSYAEGLIKQYDVRSGQGPLTIARSMSGGNQQKTIIGREIDKDHELLVAVQPTRGLDVGAIEYIHKQLVARRNAGKAVLLVSLELDEVMNVSDRILVMYEGEIVGELDPKTTTVQELGLYMSGAKRNLKEGSHAG | not soluble
MASYLPSEWQDDLKMNGLMSVMKERHVNKVDYDRKLRFWTDAIYGSCIGEKNATFNLLELKKRFRRNDRVPASLDVILDHLKKKGDVITIGEWRDRHSSWVGWGFSKTKGWMFGASSDSEQLLHLPTIKKLGQEILDIYNEELRSEIDCTGEVVTYNEMFDRASNIISKIETFDIVLEHLNDIGELTVGTTRNGEKVLKFKDNGSEDPVKFTEADASVVDIRKAMNKLDREIQQLEQKVKKYDEQCRACLRTGDKGRAQNFLRQRKRAEKDIADKDVQYQKLLTMLHQISSAKNNKDVLQAYKSGTAAFKATLARQGLSPDKIHETMDDVVNSMDEYKEIEEAISSPFVNANGFNDADLEQELEDLISDNKKNESVHLPEAPTNRFGLFDKEVTPEEDQLEKRLARLRQAI | not soluble
MGHHHHHHSHMEKCSVGGLELTEQTPALLGNMAMATSLMDIGDSFGHPACPLVSRSRNSPVEDDDDDDDVVFIESIQPPSISAPAIADQRNFIFASSKNEKPQGNYSVIPPSSRDLASQKGNISETIVIDDEEDIETNGGAEKKSSCFIEWGLPGTKNKTNDLDFSTSSLSRSKTKTGVRPFNPGRMNVAGDLFQNGEFATHHSPEMHLQRRLMSFFQ | soluble
MNIVEEHREKCTQCGQCLSVCPRYDDLGLLDLLYGYLEGTSEIEPDSLLSCLTCGLCADACPEALGIKMLISPARQKWVSEHGLTDRQLEHHHHHH | not soluble

From the DeepSol protein solubility set
